For this experiment, the target named is SARS-CoV-2 S-protein receptor-binding domain fused to the Fc domain of human IgG1 (SARS-CoV-2) (UniProt P0DTC2). The experiment can be described thus: SPR.

pKd: −log10 of the molar value.

The values that follow come from PMC7337384.

Regarding “soluble monomeric R. macrotis ACE2 (domain or fragment)”, the negative-log Kd (pKd) – broadly, the Kd on a negative log10 scale, so that one unit is a factor of ten – is 5.34.
